According to patent US20130052176, “APTAMER FOR NGF AND USE THEREOF” (SHIONOGI & CO., LTD, published 2013):

What was measured:
[1] = molecular target: T1, NGF (nerve growth factor) (human, UniProt P01138 P01138:122-241); assay: cell_activity; neurite outgrowth, NGF 1.1 nM; SPR binding; TF-1 IC50 2.4 nM; conditions: tags: amine-coupled to CM5 chip in SPR; soluble in cell assays; chain copies: 2
Description: (§1) The neurite outgrowth inhibitory activity of the aptamer obtained in Example 1 was evaluated by using Neuroscreen-1 cell, which is a subclone of PC-12 cells.
(§2) The cells (2500 cells per well) were cultured for one day in an RPMI-1640 medium containing 2.5% horse serum and 1.25% fetal bovine serum in a 96 well flat-bottom plate coated with collagen type IV. […] Two days later, the cytoplasm and nuclei were stained using Cellomics Neurite Outgrowth Kit (manufactured by Thermo Scientific), and neurite length per cell was measured by Cellomics ArrayScan VTI (manufactured by Thermo Scientific). With the neurite length per cell obtained by the addition of NGF alone as inhibitory activity 0%, and that of the cell obtained by NGF free culture for 2 days as inhibitory activity 100%, the inhibitory activity of the aptamer was calculated from the neurite length per cell obtained by culturing with the addition of NGF and the aptamer in mixture. When the inhibitory activity was 0% or below, ‘0%’ is indicated.

[2] = molecular target: T1, NGF (nerve growth factor); assay: cell_activity; neurite outgrowth, NGF 0.38 nM; TF-1 IC50 0.065 nM; conditions: tags: human NGF; chain copies: 2
Description: as §1, §2

[3] = molecular target: T1, NGF (nerve growth factor); assay: cell_activity; neurite outgrowth, NGF 0.38 nM; not tested by SPR; TF-1 IC50 <0.1 nM; conditions: tags:; soluble in cell assays; chain copies: 2
Description: as §1, §2

[4] = molecular target: T1, NGF (nerve growth factor); assay: cell_activity; neurite outgrowth, NGF 0.38 nM; TF-1 IC50 0.075 nM; conditions: tags: human NGF; chain copies: 2
Description: as §1, §2

[5] = molecular target: T1, NGF (nerve growth factor); assay: cell_activity; neurite outgrowth, NGF 1.1 nM; SPR binding; blocks NGF-TrkA; TF-1 IC50 8.0 nM; conditions: tags: amine-coupled to CM5 chip in SPR; soluble in cell assays; chain copies: 2
Description: as §1, §2

[6] = molecular target: T1, NGF (nerve growth factor); assay: cell_activity; neurite outgrowth, NGF 1.1 nM; SPR binding; blocks NGF-TrkA and NGF-p75; conditions: tags: amine-coupled to CM5 chip in SPR; soluble in cell assays; chain copies: 2
Description: as §1, §2

[7] = molecular target: T1, NGF (nerve growth factor); assay: cell_activity; neurite outgrowth, NGF 1.1 nM; TF-1 IC50 6.2 nM; conditions: tags: human NGF; chain copies: 2
Description: as §1, §2

[8] = molecular target: T1, NGF (nerve growth factor); assay: cell_activity; neurite outgrowth, NGF 1.1 nM; SPR binding; blocks NGF-TrkA and NGF-p75; TF-1 IC50 2.1 nM; conditions: tags: amine-coupled to CM5 chip in SPR; soluble in cell assays; chain copies: 2
Description: as §1, §2

[9] = molecular target: T1, NGF (nerve growth factor); assay: cell_activity; neurite outgrowth, NGF 1.1 nM; TF-1 IC50 5.3 nM; conditions: tags: human NGF; chain copies: 2
Description: as §1, §2

[10] = molecular target: T1, NGF (nerve growth factor); assay: cell_activity; neurite outgrowth, NGF 1.1 nM; conditions: tags: human NGF; chain copies: 2
Description: as §1, §2

[11] = molecular target: T1, NGF (nerve growth factor); assay: cell_activity; neurite outgrowth, NGF 1.1 nM; SPR binding; blocks NGF-TrkA and NGF-p75; TF-1 IC50 1.3 nM; conditions: tags: amine-coupled to CM5 chip in SPR; soluble in cell assays; chain copies: 2
Description: as §1, §2

[12] = molecular target: T1, NGF (nerve growth factor); assay: cell_activity; neurite outgrowth, NGF 1.1 nM; SPR binding; TF-1 IC50 6.3 nM; conditions: tags: amine-coupled to CM5 chip in SPR; soluble in cell assays; chain copies: 2
Description: as §1, §2

[13] = molecular target: T1, NGF (nerve growth factor); assay: cell_activity; neurite outgrowth, NGF 1.1 nM; SPR binding; TF-1 IC50 5.4 nM; conditions: tags: amine-coupled to CM5 chip in SPR; soluble in cell assays; chain copies: 2
Description: as §1, §2

T1 sequence (P01138 122-241, one chain of several): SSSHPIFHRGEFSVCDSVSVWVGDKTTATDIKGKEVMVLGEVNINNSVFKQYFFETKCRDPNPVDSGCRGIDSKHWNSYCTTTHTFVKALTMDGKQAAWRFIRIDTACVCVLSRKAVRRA

B1: aptamer ID 26(7) (ssRNA)
RNA: GGGAGACUCGCCAGAGUUGAAAGAAACCCAAAUAAGUGUGCGCAC
modifications: 2'-F pyrimidines; 2'-OMe at 21; other purines 2'-OH
[1]
  IC50: < 1 nM

B2: aptamer ID 26(71) (ssRNA)
RNA: GGGAGACUCGCCAGAGUUGAAAGAAACCCAAAUAAGUGUGCGCAC
modifications: 5' PEG80TS4 via C6 amino linker (Tb); 3' idT; 2'-OMe purines except ribo g3,g19,a20,a26; 2'-F c27,c28,c29,c41,c43; other pyrimidines 2'-OMe
[2]
  IC50: 0.279 nM

B3: aptamer ID 26(17) (ssRNA)
RNA: GGGAGACUCGCCAGAGUUGAAAGAAACCCAAAUAAGUGUGCGCAC
modifications: 2'-F pyrimidines; 2'-OMe purines except 2'-OH at 3,5,19-22,24,26; 5' idT; 3' PEG40GS2 (amino C-6 linker)
[3]
  IC50: < 0.1 nM

B4: aptamer ID 26(72) (mixed)
RNA: GGGAGACUCGCCAGAGUUGAAAGAAACCCAAAUAAGUGUGCGCAC
modifications: 5' PEG80TS4 via C6 amino linker (Tb); 3' idT; 2'-OMe purines except ribo g3,g19,a20,a26; 2'-F c28,c41,c43; dC27,dC29; other pyrimidines 2'-OMe
[4]
  IC50: 0.219 nM

B5: aptamer ID 55 (ssRNA)
RNA: GGGAUAAAAAUAGAGUUUGAUAAACACCUGUAUUAAAACCC
modifications: 5' cholesterol; 3' idT; 2'-F pyrimidines and a37,a38; 2'-OMe other purines except 2'-OH at 4,7,30
[5]
  IC50: 9.8 nM

B6: aptamer ID 56 (mixed)
mixed: GGGAUAAAAAUAGAGUUUGATAAACACCUGUAUUAAAACCC
modifications: 5' cholesterol; 3' idT; 2'-F pyrimidines (except dT at 21) and a37,a38; 2'-OMe other purines except 2'-OH at 4,7,30
[6]
  IC50: 4.1 nM

B7: aptamer ID 57(2) (mixed)
mixed: GGGAUAAAAAUAGAGTUUGATAAACACCUGUAUUAAAACCC
modifications: as ID 57 (5' cholesterol; 3' idT; dT16,dT21; 2'-F other pyrimidines and a37,a38; 2'-OMe purines except ribo a4,a7,g30) plus PS between 16 and 17
[7]
  IC50: < 3 nM

B8: aptamer ID 63 (mixed)
mixed: GGGAUAAAAAUAGAGTUUGATAAACACCUGUAUUAAAACCC
modifications: 5' cholesterol; 3' idT; 2'-F pyrimidines (except dT at 16,21); 2'-OMe other purines except 2'-OH at 4,7,30,37,38
[8]
  IC50: < 3 nM

B9: aptamer ID 57(7) (mixed)
mixed: GGGAUAAAAAUAGAGTUUGATAAACACCUGUAUUAAAACCC
modifications: as ID 57 (5' cholesterol; 3' idT; dT16,dT21; 2'-F other pyrimidines and a37,a38; 2'-OMe purines except ribo a4,a7,g30) plus PS between 23 and 24
[9]
  IC50: < 3 nM

B10: aptamer ID 57(8) (mixed)
mixed: GGGAUAAAAAUAGAGTUUGATAAACACCUGUAUUAAAACCC
modifications: as ID 57 (5' cholesterol; 3' idT; dT16,dT21; 2'-F other pyrimidines and a37,a38; 2'-OMe purines except ribo a4,a7,g30) plus PS between 24 and 25
[7]
  IC50: < 3 nM

B11: aptamer ID 57(6) (mixed)
mixed: GGGAUAAAAAUAGAGTUUGATAAACACCUGUAUUAAAACCC
modifications: as ID 57 (5' cholesterol; 3' idT; dT16,dT21; 2'-F other pyrimidines and a37,a38; 2'-OMe purines except ribo a4,a7,g30) plus PS between 22 and 23
[9]
  IC50: < 3 nM

B12: aptamer ID 57 (mixed)
mixed: GGGAUAAAAAUAGAGTUUGATAAACACCUGUAUUAAAACCC
modifications: 5' cholesterol; 3' idT; dT16,dT21; 2'-F other pyrimidines and a37,a38; 2'-OMe purines except ribo a4,a7,g30
[10]
  IC50: < 3 nM

B13: aptamer ID 61 (mixed)
mixed: GGGAUAAAAAUAGAGTUUGATAAACACCUGUAUUAAAACCC
modifications: 5' cholesterol; 3' idT; 2'-F pyrimidines (except dT at 16,21) and a38; 2'-OMe other purines except 2'-OH at 4,7,30,37
[11]
  IC50: < 3 nM

B14: aptamer ID 62 (mixed)
mixed: GGGAUAAAAAUAGAGTUUGATAAACACCUGUAUUAAAACCC
modifications: 5' cholesterol; 3' idT; 2'-F pyrimidines (except dT at 16,21) and a37; 2'-OMe other purines except 2'-OH at 4,7,30,38
[12]
  IC50: 4.6 nM

B15: aptamer ID 60 (mixed)
mixed: GGGAUAAAAAUAGAGTUUGATAUACACCUGUAUUAAAACCC
modifications: 5' cholesterol; 3' idT; 2'-F pyrimidines (except dT at 16,21) and a37,a38; 2'-OMe other purines except 2'-OH at 4,7,30
[13]
  IC50: < 3 nM

B16: aptamer ID 48 (ssRNA)
RNA: GGGAGAACUUCGACCAGAGUCGAUAACGAACAAAACUCCCAAAUAUGUGCGCAUAC
modifications: 2'-F all pyrimidines
[10]
  IC50: 1.8 nM
